Experiments:
ATG14L = target: T1, ATG14L (UniProt Q6ZNE5 1-492); assay: co-IP of Flag-IRGM and endogenous ATG14
T1 construct: also called endogenous ATG14

Beclin 1 = target: T2, Beclin 1 (UniProt Q14457 1-450); assay: co-immunoprecipitation, HEK293T lysates
T2 construct: Flag-tagged overexpressed or endogenous, depending on the experiment; also called Flag-Beclin 1; Flag-Beclin-1

RIG-I = target: T3, RIG-I (UniProt O95786 1-925); assay: co-IP with anti-GFP, GFP-IRGM and Flag-Rig-I
T3 construct: also called Flag-Rig-I
T3 sequence (looked up): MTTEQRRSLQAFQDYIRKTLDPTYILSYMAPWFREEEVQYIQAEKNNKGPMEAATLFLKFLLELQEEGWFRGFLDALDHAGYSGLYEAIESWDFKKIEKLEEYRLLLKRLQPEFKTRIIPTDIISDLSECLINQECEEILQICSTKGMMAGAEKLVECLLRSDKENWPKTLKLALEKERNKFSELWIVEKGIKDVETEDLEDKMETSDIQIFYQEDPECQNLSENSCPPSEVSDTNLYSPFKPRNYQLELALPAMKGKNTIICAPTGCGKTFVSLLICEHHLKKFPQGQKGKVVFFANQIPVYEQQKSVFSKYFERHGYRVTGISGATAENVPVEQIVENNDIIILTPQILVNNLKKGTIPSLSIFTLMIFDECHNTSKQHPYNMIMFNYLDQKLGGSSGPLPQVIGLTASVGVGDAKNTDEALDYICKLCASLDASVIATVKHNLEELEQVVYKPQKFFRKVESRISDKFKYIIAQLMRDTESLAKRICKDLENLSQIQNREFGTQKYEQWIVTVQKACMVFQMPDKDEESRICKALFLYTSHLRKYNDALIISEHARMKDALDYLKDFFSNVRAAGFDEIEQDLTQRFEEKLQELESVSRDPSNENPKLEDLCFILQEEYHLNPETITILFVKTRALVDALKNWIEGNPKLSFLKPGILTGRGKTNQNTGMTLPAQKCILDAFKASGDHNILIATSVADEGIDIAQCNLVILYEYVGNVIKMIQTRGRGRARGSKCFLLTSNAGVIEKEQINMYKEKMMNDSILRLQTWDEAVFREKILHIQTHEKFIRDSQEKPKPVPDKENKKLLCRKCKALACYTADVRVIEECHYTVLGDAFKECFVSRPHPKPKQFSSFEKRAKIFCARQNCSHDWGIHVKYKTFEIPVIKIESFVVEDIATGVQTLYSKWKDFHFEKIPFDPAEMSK

[1] = target: the molecule itself; assay: co-IP of differently tagged IRGM, HEK293T cells
Rubicon = target: T4, Rubicon (UniProt Q92622 1-972, limits assumed); assay: co-immunoprecipitation, HEK293T cells expressing GFP-IRGM
T4 sequence (looked up): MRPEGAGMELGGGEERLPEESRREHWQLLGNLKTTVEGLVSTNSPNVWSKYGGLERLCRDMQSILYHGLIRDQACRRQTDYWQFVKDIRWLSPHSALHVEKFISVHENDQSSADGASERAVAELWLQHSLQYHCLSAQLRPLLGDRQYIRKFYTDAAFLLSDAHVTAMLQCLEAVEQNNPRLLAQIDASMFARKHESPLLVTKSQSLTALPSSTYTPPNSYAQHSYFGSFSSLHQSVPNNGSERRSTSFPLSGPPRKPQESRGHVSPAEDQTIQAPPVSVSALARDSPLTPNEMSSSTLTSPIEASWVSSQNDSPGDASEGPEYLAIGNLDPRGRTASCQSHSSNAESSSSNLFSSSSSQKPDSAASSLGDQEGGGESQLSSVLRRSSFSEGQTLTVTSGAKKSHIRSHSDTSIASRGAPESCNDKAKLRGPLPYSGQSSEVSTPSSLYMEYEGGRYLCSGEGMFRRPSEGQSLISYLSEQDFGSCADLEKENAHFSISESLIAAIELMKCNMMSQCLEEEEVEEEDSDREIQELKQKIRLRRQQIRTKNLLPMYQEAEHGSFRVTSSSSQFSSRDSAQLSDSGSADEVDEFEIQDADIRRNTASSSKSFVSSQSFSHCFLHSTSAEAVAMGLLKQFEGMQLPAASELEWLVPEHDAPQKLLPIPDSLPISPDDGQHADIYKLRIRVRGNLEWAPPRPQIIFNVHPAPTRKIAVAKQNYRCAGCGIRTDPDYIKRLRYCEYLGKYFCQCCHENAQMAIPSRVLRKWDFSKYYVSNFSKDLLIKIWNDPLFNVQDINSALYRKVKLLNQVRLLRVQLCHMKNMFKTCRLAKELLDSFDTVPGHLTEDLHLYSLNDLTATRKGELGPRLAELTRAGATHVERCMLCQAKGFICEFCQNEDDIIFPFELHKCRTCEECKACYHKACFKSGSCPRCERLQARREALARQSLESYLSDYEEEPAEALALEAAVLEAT

T2 sequence (Q14457 whole entry): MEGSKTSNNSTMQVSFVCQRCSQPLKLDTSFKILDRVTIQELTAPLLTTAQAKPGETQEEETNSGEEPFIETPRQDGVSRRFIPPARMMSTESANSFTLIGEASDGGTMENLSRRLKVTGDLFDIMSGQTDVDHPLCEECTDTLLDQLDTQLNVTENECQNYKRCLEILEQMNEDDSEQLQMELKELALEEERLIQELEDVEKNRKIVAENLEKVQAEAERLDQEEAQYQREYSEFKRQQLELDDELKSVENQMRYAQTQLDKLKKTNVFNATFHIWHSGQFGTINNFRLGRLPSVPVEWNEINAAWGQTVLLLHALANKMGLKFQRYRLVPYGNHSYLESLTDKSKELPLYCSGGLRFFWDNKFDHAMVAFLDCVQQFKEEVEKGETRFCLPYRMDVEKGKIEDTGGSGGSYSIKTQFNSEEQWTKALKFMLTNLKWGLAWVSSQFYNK
T1 sequence (Q6ZNE5 whole entry): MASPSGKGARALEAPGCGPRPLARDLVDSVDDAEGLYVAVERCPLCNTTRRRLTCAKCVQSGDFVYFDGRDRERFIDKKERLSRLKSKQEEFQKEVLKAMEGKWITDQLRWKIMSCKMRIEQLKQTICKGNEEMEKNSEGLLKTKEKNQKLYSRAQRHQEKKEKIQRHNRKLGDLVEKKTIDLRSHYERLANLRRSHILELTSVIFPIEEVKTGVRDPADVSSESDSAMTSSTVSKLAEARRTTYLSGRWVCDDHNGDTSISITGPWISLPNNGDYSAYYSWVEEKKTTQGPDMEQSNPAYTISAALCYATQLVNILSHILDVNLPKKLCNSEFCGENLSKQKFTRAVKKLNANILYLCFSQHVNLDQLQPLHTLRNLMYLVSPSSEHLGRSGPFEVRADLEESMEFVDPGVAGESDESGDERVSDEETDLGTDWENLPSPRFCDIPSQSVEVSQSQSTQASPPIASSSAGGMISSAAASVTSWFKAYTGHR

B1: IRGM (human IRGM, isoform d) (other, UniProt A1A4Y4-4 1-202, looked up)
chain: MEAMNVEKASADGNLPEVISNIKETLKIVSRTPVNITMAGDSGNGMSTFISALRNTGHEGKASPPTELVKATQRCASYFSSHFSNVVLWDLPGTGSATTTLENYLMEMQFNRYDFIMVASAQFSMNHVMLAKTAEDMGKKFYIVWTKLDMDLSTGALPEVQLLQIRENVLENLQKERLACHEKYLKSTPENSTRPRNINLCS
notes: Stood in cell lysates as GFP-, Flag- or V5-tagged protein or as the endogenous protein, depending on the experiment; Isoform d is said to be used in all experiments; also called GFP-IRGM; GFP-IRGMd
binding result (ATG14L): binds | binding result (Beclin 1): binds | binding result (RIG-I): binds | binding result [1]: binds | binding result (Rubicon): no binding

Reference: patent publication US20180236024A1 (STC UNM, published 2018)
